Experimental data as given in patent US20130273046A1 (published 2013).

B1: mAbEDAR2 (antibody, V domains shown)
VH: QVQLQQPGAELVKPGASVKLSCKASGYTFTSYWMQWVKQRPGQGIEWIGEIDPSDSYTYYNQKFKGKATLTIDKSSSTAYMQLSSLTSEDSAVYYCSRKNYYRGMDYWGQGTSVTVSS
VL: DVLMTQTPLSLPVSLGDQASISCRSSQNIVQSNGNTYLEWYLQKPGQSPKLLIYKVSNRFSGVPDRFSGSGSGTDFTLKISRVEADDLGVYYCFQVSHVPYTFGGGTKLEIKR
B2: mAbEDAR6 (antibody, V domains shown)
VH: EVQLQQSGPELVKPGASVKMSCKASGYSFTGYNMHWVKQSHGKSLEWIGYIDPYNGATSKNQKFKGKATLTVDKSSTTAYIQLNSLTSEDSAVYYCARYYYGDYHWYFDVWGAGTTVTVSS
VL: DVVMTQTPLSLPVSLGDQASISCRSSQSLVHSNGNTYLHWYLQQPGQSPKLLIYKVSNRFSGVPDRFSGSGSGTDFTLKISRVEAEDLGVYFCSQHTHVPPTFGAGTKLELKR

Target: human EDAR-Fc
Sequence (chain, as listed by the source): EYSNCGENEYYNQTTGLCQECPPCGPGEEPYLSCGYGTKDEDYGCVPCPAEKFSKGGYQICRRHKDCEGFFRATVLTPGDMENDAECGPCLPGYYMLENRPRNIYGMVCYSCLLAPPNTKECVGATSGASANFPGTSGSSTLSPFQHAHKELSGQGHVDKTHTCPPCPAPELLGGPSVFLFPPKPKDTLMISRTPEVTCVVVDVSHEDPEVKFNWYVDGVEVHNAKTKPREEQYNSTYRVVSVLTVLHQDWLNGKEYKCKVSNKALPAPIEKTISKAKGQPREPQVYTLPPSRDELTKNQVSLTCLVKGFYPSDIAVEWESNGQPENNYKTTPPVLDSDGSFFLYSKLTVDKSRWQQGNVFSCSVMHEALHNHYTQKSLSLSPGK
Test: SPR (Biacore); Fab fragment

Kd [nM]	Binder
1	B1
1.58	B2
